What was measured:
[1] = target: Aβ42 (Homo sapiens, UniProt P05067); test: Fluorescence polarization; assay type: binding; conditions: read-out: apparent Kd for the Aβ42/CP interaction; fluorescence polarization of FAM-Aβ42 with increasing concentrations of CP
[2] = target: biotinylated-Aβ42 (Homo sapiens, UniProt P05067); test: Single-molecule TIRF imaging of Cy3-CP on immobilized biotinylated Aβ42; assay type: binding
[3] = Fluorescence spectra of FAM-Aβ42 during incubation in PBS; assay type: physicochemical; conditions: PBS buffer, 0 to 60 minutes, in the presence of CP

Sequence of biotinylated-Aβ42 (P05067 672-713): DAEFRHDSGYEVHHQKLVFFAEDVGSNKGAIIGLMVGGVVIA
Sequence of Aβ42 (P05067 672-713, one chain of several): as the sequence (P05067 672-713) above

B1: ceruloplasmin (protein)
chain: KEKHYYIGIIETTWDYASDHGEKKLISVDTEHSNIYLQNGPDRIGRLYKKALYLQYTDETFRTTIEKPVWLGFLGPIIKAETGDKVYVHLKNLASRPYTFHSHGITYYKEHEGAIYPDNTTDFQRADDKVYPGEQYTYMLLATEEQSPGEGDGNCVTRIYHSHIDAPKDIASGLIGPLIICKKDSLDKEKEKHIDREFVVMFSVVDENFSWYLEDNIKTYCSEPEKVDKDNEDFQESNRMYSVNGYTFGSLPGLSMCAEDRVKWYLFGMGNEVDVHAAFFHGQALTNKNYRIDTINLFPATLFDAYMVAQNPGEWMLSCQNLNHLKAGLQAFFQVQECNKSSSKDNIRGKHVRHYYIAAEEIIWNYAPSGIDIFTKENLTAPGSDSAVFFEQGTTRIGGSYKKLVYREYTDASFTNRKERGPEEEHLGILGPVIWAEVGDTIRVTFHNKGAYPLSIEPIGVRFNKNNEGTYYSPNYNPQSRSVPPSASHVAPTETFTYEWTVPKEVGPTNADPVCLAKMYYSAVEPTKDIFTGLIGPMKICKKGSLHANGRQKDVDKEFYLFPTVFDENESLLLEDNIRMFTTAPDQVDKEDEDFQESNKMHSMNGFMYGNQPGLTMCKGDSVVWYLFSAGNEADVHGIYFSGNTYLWRGERRDTANLFPQTSLTLHMWPDTEGTFNVECLTTDHYTGGMKQKYTVNQCRRQSEDSTFYLGERTYYIAAVEVEWDYSPQREWEKELHHLQEQNVSNAFLDKGEFYIGSKYKKVVYRQYTDSTFRVPVERKAEEEHLGILGPQLHADVGDKVKIIFKNMATRPYSIHAHGVQTESSTVTPTLPGETLTYVWKIPERSGAGTEDSACIPWAYYSTVDQVKDLYSGLIGPLIVCRRPYLKVFNPRRKLEFALLFLVFDENESWYLDDNIKTYSDHPEKVNKDDEEFIESNKMHAINGRMFGNLQGLTMHVGDEVNWYLMGMGNEIDLHTVHFHGHSFQYKHRGVYSSDVFDIFPGTYQTLEMFPRTPGIWLLHCHVTDHIHAGMETTYTVLQNEDTKSG
In the case of B1, the Kd [1] is reported as 123 ± 6.7 nM, the “TIRF image brightness of CP/Aβ versus CP alone” value ([2]; Cy3-labeled CP, imaging for 10 minutes) is reported as “much higher” and the “half-lifetime of stable binding” value ([2]; TIRF, 100 nM CP-Cy3, no Vc) is reported as ~62.3 s. For the same molecule, the “half-lifetime of transient binding” value ([2]; TIRF, 100 nM CP-Cy3, no Vc) was “about 14.6 s”, the “stable K(slow) of CP/Aβ binding” value ([2]; TIRF, 100 nM CP-Cy3, no Vc, unit not given) was “about 0.011” and the “half-lifetime of stable binding with Vc” value ([2]; TIRF, 100 nM CP-Cy3 with 250 μM Vc) was 39.0 s. For the same molecule, the “effect of CP on the fluorescence intensity decrease of FAM-Aβ42” value [3] was “considerably attenuated”.

From article PMC10350030 (bioRxiv, 2023)
